Reference: article PMC10935766 (2024)
Numbering of substitutions follows the chain as printed. Names and notes keep the numbering of the source. Like-named read-outs stand apart in the source and are kept apart here. Non-standard residues stand in square brackets, D forms with d. No end group written: not given here. pY = N[C@@H](Cc1ccc(OP(=O)(O)O)cc1)C(=O)O

Key:
E6AP AZUL (Homo sapiens) [1] = biological target: E6AP AZUL (Homo sapiens) (UniProt Q05086); conditions: cited from earlier work
E6AP AZUL (Homo sapiens) [2] = biological target: E6AP AZUL (Homo sapiens) (UniProt Q05086); assay: ITC; conditions: cited from earlier work
E6AP AZUL (Homo sapiens) [3] = biological target: E6AP AZUL (Homo sapiens) (UniProt Q05086); assay: SPR; conditions: cited from earlier work
E6AP AZUL 24-87 [4] = biological target: T1, E6AP AZUL 24-87 (Homo sapiens, UniProt Q05086); assay: ITC
T1 chain: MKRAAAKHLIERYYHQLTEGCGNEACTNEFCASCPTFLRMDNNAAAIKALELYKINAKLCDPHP

E6AP AZUL 24-87 [5] = biological target: T1, E6AP AZUL 24-87; assay: fluorescence (dual probe)
E6AP AZUL 24-87 [6] = biological target: T1, E6AP AZUL 24-87; assay: fluorescence
E6AP AZUL 24-87 [7] = biological target: T1, E6AP AZUL 24-87; assay: fluorescence competition (50 nM S358C-acrylodan, 10 nM AZUL)
E6AP AZUL 24-87 [8] = biological target: T1, E6AP AZUL 24-87; assay: fluorescence competition (10 nM S337C-Atto610:AZUL)
E6AP AZUL 24-87 [9] = biological target: T1, E6AP AZUL 24-87; assay: fluorescence competition (100 nM S358C-acrylodan:AZUL)
E6AP AZUL 24-87 [10] = biological target: T1, E6AP AZUL 24-87; assay: fluorescence competition (25 nM S358C-acrylodan:AZUL)
E6AP AZUL 24-87 [11] = biological target: T1, E6AP AZUL 24-87; assay: fluorescence competition (25 nM S337C-Atto610:AZUL)

Question: With Rpn10 322-366 (from UniProt P55036) as the molecule, how does the Kd (E6AP AZUL (Homo sapiens) [1]) read?
Answer: Its Kd is 189 nM.

Question: What does the source list for Rpn10 RAZUL (from UniProt P55036)?
Answer: Kd (E6AP AZUL (Homo sapiens) [2]): 8.1 nM; Kd (E6AP AZUL (Homo sapiens) [3]): 11.6 nM

B1: Rpn10 RAZUL S361C 305-377 (protein)
chain: SADIDASSAMDTSEPAKEEDDYDVMQDPEFLQSVLENLPGVDPNNEAIRNAMGSLACQATKDGKKDKKEEDKK
Question: For B1, which Kd (E6AP AZUL 24-87 [4]) is on record?
Answer: Its Kd is 6.9 nM.

B2: Rpn10 RAZUL S358C 305-377 (protein)
chain: B1 chain with S54C, C57S
Question: Which Kd (E6AP AZUL 24-87 [4]) does the source give for B2 here?
Answer: Its Kd is under 30 nM.

B3: Rpn10 RAZUL S358C-acrylodan 305-377 (protein)
chain: B1 chain with C57S
modifications: S358C labeled with acrylodan
Question: Which results are given for B3?
Answer: Kd (E6AP AZUL 24-87 [5]): 2.97 nM; Kd (E6AP AZUL 24-87 [6]): ~18 nM

B4: Rpn10 RAZUL S337C 305-377 (protein)
chain: B1 chain with S33C, C57S
Question: With B4 as the molecule, how does the Kd (E6AP AZUL 24-87 [4]) read?
Answer: Its Kd is under 30 nM.

B5: Rpn10 RAZUL peptide 322-366 (peptide)
chain: EEDDYDVMQDPEFLQSVLENLPGVDPNNEAIRNAMGSLASQATKD
Question: For B5, which Ki (E6AP AZUL 24-87 [7]) is on record?
Answer: The Ki was 28.5 nM.

Question: And the Ki (E6AP AZUL 24-87 [8])?
Answer: Its Ki is 664 nM.

Question: What about the Ki (E6AP AZUL 24-87 [9]) of the same molecule?
Answer: The Ki was 18200 nM.

Question: What about the Ki (E6AP AZUL 24-87 [10]) of the same molecule?
Answer: Its Ki is 1260 nM.

Question: And the Ki (E6AP AZUL 24-87 [11])?
Answer: The Ki was 780 nM.

B6: Rpn10 RAZUL S337C-acrylodan 305-377 (protein)
chain: B1 chain with C57S
modifications: S337C labeled with acrylodan
Question: For B6, which Kd (E6AP AZUL 24-87 [4]) is on record?
Answer: The Kd was under 35 nM.

B7: Rpn10 RAZUL S337C-Atto610 305-377 (protein)
chain: B1 chain with C57S
modifications: S337C labeled with Atto610
Question: With B7 as the molecule, how does the Kd (E6AP AZUL 24-87 [5]) read?
Answer: The Kd was 16.3 nM.

B8: Rpn10 RAZUL peptide Y326p 322-366 (peptide)
chain: EEDD[pY]DVMQDPEFLQSVLENLPGVDPNNEAIRNAMGSLASQATKD
Question: Which Ki (E6AP AZUL 24-87 [7]) does the source give for B8 here?
Answer: Its Ki is 42.6 nM.
